According to patent publication US20250320312A1 (OXITOPE PHARMA B V, published 2025):
Numbering of substitutions follows the chain as printed.

B1: PcOxP_DB02_G05 (scFv, V domains shown)
VH: EVQLLESGGGLVQPGGSLRLSCAASGFTFSDFYMEWVRQAPGKGLEWVAASRNKANDYTTEYADSVKGRFTISRDNSKNTLYLQMNSLRAEDTAVYYCARDYYGSSHWYFDVWGQGTLVTVSS
VL: DIVMTQSPDSLAVSLGERATINCTASESLYSSKHKLHYLAWYQQKPGQPPKLLIYGASNRYIGVPDRFSGSGSGTDFTLTISSLQAEDVAVYYCGQFYSYPLTFGGGTKVEIK
notes: scFv in periplasmic extract
B2: PcOxP_DB02_H05 (scFv, V domains shown)
VH: B1 VH with H107Y, V112P
VL: B1 VL with L36V, I62L, G95A
notes: scFv in periplasmic extract
B3: PcOxP_DB03_B01 (scFv, V domains shown)
VH: B1 VH with D31S, F32Y, K54T, H107Y
VL: B1 VL with L36V, Y61E, G95A
notes: scFv in periplasmic extract
B4: PcOxP_DB03_B06 (scFv, V domains shown)
VH: B1 VH with F27I, A55Y, H107Y
VL: B1 VL with L36V, I62T, G95A
notes: scFv in periplasmic extract
B5: PcOxP_DB03_A07 (scFv, V domains shown)
VH: B1 VH with T28H, H107Y
VL: B1 VL with S28N, L36V, I62S, G95A
notes: scFv in periplasmic extract
B6: PcOxP_DB03_A06 (scFv, V domains shown)
VH: B1 VH with D31S, F32Y, N53S, S106Q, H107Y
VL: B1 VL with S32N, L36V, G95A
notes: scFv in periplasmic extract
B7: PcOxP_DB02_H07 (scFv, V domains shown)
VH: B1 VH with D31S, F32Y, H107Y
VL: B1 VL with L36V, I62N, G95A, S99T
notes: scFv in periplasmic extract
B8: PcOxP_DB02_H09 (scFv, V domains shown)
VH: B1 VH with D31S, F32Y, T60Y, G104E, H107Y
VL: B1 VL with L36V, G95A
notes: scFv in periplasmic extract
B9: PcOxP_DB03_B09 (scFv, V domains shown)
VH: B1 VH with D31S, F32Y, H107Y
VL: B1 VL with L36V, S58A, G95A
notes: scFv in periplasmic extract
B10: PcOxP_DB03_A05 (scFv, V domains shown)
VH: B1 VH with D31E, H107Y
VL: B1 VL with L36V, Y61A, G95A, S99F
notes: scFv in periplasmic extract
B11: PcOxP_DB03_B08 (scFv, V domains shown)
VH: B1 VH with F32Y, H107Y
VL: B1 VL with L36V, G95A, Q96N
notes: scFv in periplasmic extract
B12: PcOxP_DB02_H06 (scFv, V domains shown)
VH: B1 VH with F32Q, H107Y
VL: B1 VL with A25S, H34N, L36V, H37N, G95A, S99F
notes: scFv in periplasmic extract
B13: PcOxP_DB03_A04 (scFv, V domains shown)
VH: B1 VH with F27D, T59S, H107Y
VL: B1 VL with T24E, L36V, G95A
notes: scFv in periplasmic extract
B14: PcOxP_DB03_B12 (scFv, V domains shown)
VH: B1 VH with T28Q, N53W, H107Y
VL: B1 VL with L36V, G95A
notes: scFv in periplasmic extract
B15: PcOxP_DB03_B10 (scFv, V domains shown)
VH: B1 VH with F32Y, T59N, H107Y
VL: B1 VL with L36V, G95A
notes: scFv in periplasmic extract
B16: PcOxP_DB03_A10 (scFv, V domains shown)
VH: B1 VH with F27W, H107Y
VL: B1 VL with L36V, N59Q, G95A, S99L
notes: scFv in periplasmic extract
B17: PcOxP_DB03_B03 (scFv, V domains shown)
VH: B1 VH with F32G, H107Y
VL: B1 VL with L36V, G95A, S99V
notes: scFv in periplasmic extract
B18: PcOxP_DB03_C08 (scFv, V domains shown)
VH: B1 VH with F27S, Y58F, H107Y
VL: B1 VL with L36V, I62S, G95A, S99H
notes: scFv in periplasmic extract
B19: PcOxP_DB02_H04 (scFv, V domains shown)
VH: B1 VH with F32E, H107Y
VL: B1 VL with L36V, H37V, G95A, S99F
notes: scFv in periplasmic extract
B20: PcOxP_DB03_C01 (scFv, V domains shown)
VH: B1 VH with Y62V, H107N
VL: B1 VL with H34I, L36V, S58H, G95A
notes: scFv in periplasmic extract
B21: PcOxP_DB03_A12 (scFv, V domains shown)
VH: B1 VH with F32G, E61A, H107Y
VL: B1 VL with L36V
notes: scFv in periplasmic extract
B22: PcOxP_DB03_B11 (scFv, V domains shown)
VH: B1 VH with M34V, D57T, H107Y
VL: B1 VL with L36V, S58Q
notes: scFv in periplasmic extract
B23: PcOxP_DB02_H08 (scFv, V domains shown)
VH: B1 VH with F32A, S106H, H107Y
VL: B1 VL with A25S, E27Q, K35N, L36K, G95A
notes: scFv in periplasmic extract
B24: PcOxP_DB03_B07 (scFv, V domains shown)
VH: B1 VH with T28G, G104S, H107Y
VL: B1 VL with L36V, G95A
notes: scFv in periplasmic extract
B25: PcOxP_DB03_C04 (scFv, V domains shown)
VH: B1 VH with H107Y, F110N
VL: B1 VL with L36V, G95A, S99T
notes: scFv in periplasmic extract

Target: T1, Peptide 4: Biotin-AGGGGSGGGGSGGGGSAAA-Tyr-acid (N-terminal biotin; C-terminal acid)
T1 construct: Control peptide without PC
T1 peptide: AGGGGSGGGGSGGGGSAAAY
Experiment: scFv ELISA
How it was run: (§1)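 Bound scFv was read as OD450 after HRP–anti-V5 detection, TMB development and HCl stop. PPE with BSA was incubated 1 h at RT on BSA-blocked wells coated overnight at 4° C. with peptide, or on streptavidin wells loaded 1 h with biotinylated PC-peptides at 1 μg/mL.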

| Binder | OD450 [OD450] |
| --- | --- |
| B1 | 0.05 |
| B2 | 0.04 |
| B3 | 0.04 |
| B4 | 0.04 |
| B5 | 0.04 |
| B6 | 0.05 |
| B7 | 0.04 |
| B8 | 0.04 |
| B9 | 0.05 |
| B10 | 0.04 |
| B11 | 0.05 |
| B12 | 0.05 |
| B13 | 0.04 |
| B14 | 0.05 |
| B15 | 0.05 |
| B16 | 0.04 |
| B17 | 0.04 |
| B18 | 0.05 |
| B19 | 0.05 |
| B20 | 0.05 |
| B21 | 0.06 |
| B22 | 0.05 |
| B23 | 0.04 |
| B24 | 0.06 |
| B25 | 0.04 |

Target: T2, Peptide 8: Biotin-AEAAAKEAAAKEAAAKEAAAKAAA-Tyr-acid (N-terminal biotin; C-terminal acid)
T2 construct: Control peptide without PC
T2 peptide: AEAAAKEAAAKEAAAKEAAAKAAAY
Experiment: scFv ELISA
How it was run: as §1

| Binder | OD450 [OD450] |
| --- | --- |
| B1 | 0.07 |
| B2 | 0.04 |
| B3 | 0.04 |
| B4 | 0.05 |
| B5 | 0.04 |
| B6 | 0.05 |
| B7 | 0.05 |
| B8 | 0.04 |
| B9 | 0.05 |
| B10 | 0.04 |
| B11 | 0.04 |
| B12 | 0.05 |
| B13 | 0.04 |
| B14 | 0.05 |
| B15 | 0.05 |
| B16 | 0.04 |
| B17 | 0.04 |
| B18 | 0.05 |
| B19 | 0.04 |
| B20 | 0.05 |
| B21 | 0.05 |
| B22 | 0.05 |
| B23 | 0.06 |
| B24 | 0.05 |
| B25 | 0.04 |

target: Peptide 5: Biotin-…-[Tyr(PC)]-acid; experiment: scFv ELISA

| Binder | OD450 [OD450] |
| --- | --- |
| B1 | 1.8 |
| B2 | 0.44 |
| B3 | 0.64 |
| B4 | 1.01 |
| B5 | 1.01 |
| B6 | 1.07 |
| B7 | 0.88 |
| B8 | 0.58 |
| B9 | 0.89 |
| B10 | 0.78 |
| B11 | 1.95 |
| B12 | 1.04 |
| B13 | 0.47 |
| B14 | 0.85 |
| B15 | 0.71 |
| B16 | 0.54 |
| B17 | 1.1 |
| B18 | 0.9 |
| B19 | 0.2 |
| B20 | 1.47 |
| B21 | 1.67 |
| B22 | 0.72 |
| B23 | 1.34 |
| B24 | 0.81 |
| B25 | 1.72 |

target: BSA (UniProt P02769); experiment: scFv ELISA
Sequence (P02769 25-607 limits assumed): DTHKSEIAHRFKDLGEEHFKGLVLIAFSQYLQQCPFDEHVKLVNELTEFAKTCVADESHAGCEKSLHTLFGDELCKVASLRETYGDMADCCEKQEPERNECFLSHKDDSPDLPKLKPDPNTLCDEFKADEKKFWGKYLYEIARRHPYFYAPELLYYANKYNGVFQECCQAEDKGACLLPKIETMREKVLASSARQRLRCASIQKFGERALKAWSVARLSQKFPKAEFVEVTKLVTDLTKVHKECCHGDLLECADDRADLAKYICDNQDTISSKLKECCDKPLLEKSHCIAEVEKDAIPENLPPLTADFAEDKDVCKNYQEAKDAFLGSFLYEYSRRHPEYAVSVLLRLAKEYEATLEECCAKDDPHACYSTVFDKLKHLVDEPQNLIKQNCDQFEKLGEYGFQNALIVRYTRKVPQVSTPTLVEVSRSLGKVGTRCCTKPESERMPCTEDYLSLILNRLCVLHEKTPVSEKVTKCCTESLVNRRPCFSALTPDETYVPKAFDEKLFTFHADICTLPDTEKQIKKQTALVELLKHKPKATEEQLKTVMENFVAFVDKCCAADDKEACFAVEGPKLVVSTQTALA

| Binder | OD450 [OD450] |
| --- | --- |
| B1 | 0.11 |
| B2 | 0.09 |
| B3 | 0.06 |
| B4 | 0.06 |
| B5 | 0.06 |
| B6 | 0.08 |
| B7 | 0.07 |
| B8 | 0.07 |
| B9 | 0.08 |
| B10 | 0.06 |
| B11 | 0.07 |
| B12 | 0.07 |
| B13 | 0.06 |
| B14 | 0.06 |
| B15 | 0.08 |
| B16 | 0.06 |
| B17 | 0.07 |
| B18 | 0.06 |
| B19 | 0.06 |
| B20 | 0.08 |
| B21 | 0.07 |
| B22 | 0.07 |
| B23 | 0.07 |
| B24 | 0.12 |
| B25 | 0.07 |

target: Peptide 1: Biotin-…-[Tyr(PC)]-acid; experiment: scFv ELISA

| Binder | OD450 [OD450] |
| --- | --- |
| B1 | 1.49 |
| B2 | 0.2 |
| B3 | 0.21 |
| B4 | 0.68 |
| B5 | 0.94 |
| B6 | 0.99 |
| B7 | 0.56 |
| B8 | 0.25 |
| B9 | 1.09 |
| B10 | 0.93 |
| B11 | 2.63 |
| B12 | 0.92 |
| B13 | 0.19 |
| B14 | 1.21 |
| B15 | 0.41 |
| B16 | 0.6 |
| B17 | 1.12 |
| B18 | 0.98 |
| B19 | 0.22 |
| B20 | 0.84 |
| B21 | 2.28 |
| B22 | 0.5 |
| B23 | 0.4 |
| B24 | 0.66 |
| B25 | 2.11 |
